# According to the nanobody polyreactivity screen of Harvey et al. (2022):
# Assay: yeast display, Sf9 membrane polyspecificity reagent, FACS + sequencing; frameworks hold sequencing errors
# In short: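 Nanobodies from a synthetic yeast display library (Saccharomyces cerevisiae BJ5465), induced 36–48 hours with galactose, were stained 1 hour at 4 °C with 10% biotinylated, detergent-solubilized Sf9 membrane reagent, enriched on streptavidin microbeads, then FACS-sorted. Anti-HA (expression) and streptavidin (reagent binding) fluorescence set low and high (top ~1%) gates. Polyreactivity labels come from the gate of origin. Genes were colony-PCR amplified, MiSeq 2 × 250 sequenced and filtered by CDR length.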
row,Sequence,polyreactivity (PSR sort gate)
1,QVQLVESGGGLVQAGGSLRLSCAASGFTFSSYAMGWYRQAPGKERELVAAITTRGGTFYADSVKGRFTISRDNAKNTVYLQMNSLKPEDTAVYYCAARRVSGRGYWGQGTQVTVSS,high polyreactivity
2,QVQLVESGGGLVQAGGSLRLSCAASGFTFSTNAMGWYRQAPGKERELVAAISWSGSSTYYADSVKGRFTISRDNAKNTVYLQMNSLKPEDTAVYYCAKSRGQADPTYDYWGQGTQVTVSS,low polyreactivity
3,QVQLVESGGGLVQAGGSLRLSCAASGFTFSTYAMGWYRQAPGKERELVAAISFSGGSTYYADSVKGRFTISRDNAKNTVYLQMNSLKPEDTAVYYCNAVFGYRLPGNYWGQGTQVTVSS,low polyreactivity
4,QVQLVESGGGLVQAGGSLRLSCAASGFTFSTYAMGWYRQAPGKERELVAAITRSGGSTYYADSVKGRFTISRDNAKNTVYLQMNSLKPEDTAVYYCATDASFYDPDLYPYGYDYWGQGTQVTVSS,high polyreactivity
5,QVQLVESGGGLVQAGGSLRLSCAASGFTFSVNAMVWYRQAPGKERELVAAISSRGSITYYADSVKGRFTISRDNAKNTVYLQMNSLKPEDTAVYYCAAKPLTGSSWEDYYWGQGTQVTVSS,high polyreactivity
6,QVQLVESGGGLVQAGGSLRLSCAASGFTFSVYAMGWYRQAPGKERELVATITDSGSTNYADSVKGRFTISRDNAKNTVYLQMNSLKPEDTAVYYCNADFRRYVTYHYYRAVIHHDYWGQGTQVTVSS,high polyreactivity
7,QVQLVESGGGLVQAGGSLRLSCAASGFTFSWYAMGCYRQAPGKVRELVAAITSRGGITYYADSVKGRFTISRDNAKNTVYLQMNSLKPEDTAVYYCNAYSQRYGYYYWGQGTQVTVSS,high polyreactivity
8,QVQLVESGGGLVQAGGSLRLSCAASGFTFSWYPMGWYRQAPGKERELVAAITSGGGTNYADSVKGRFTISRDNAKNTVYLQMNSLIPEDTAVYYCAARGRWFYYLDDYWGQGTQVTVSS,low polyreactivity
9,QVQLVESGGGLVQAGGSLRLSCAASGFTFSWYTMGWYRQAPGKERELVAAITSGGSTNYADSVKGRFTISRDNAKNTVYLQMNSLKPEDTAVYYCNAYWSYSISGYDYWGQGTQVTVSS,low polyreactivity
10,QVQLVESGGGLVQAGGSLRLSCAASGFTFSYNSMGRYRQATGKERELVARISRTGGSTNYADSVKGRFTISRDNAKNTVYLQMNSLKPEDTAVYYCGTGYRYTYGSWGQGTQVTVSS,high polyreactivity
11,QVQLVESGGGLVQAGGSLRLSCAASGFTFSYYAMGWYRQAPGKERELVAAISGSGGSTYYADSVKGRFTISRDNAKNTVYLQMNSLKPEDTAVYYCNARWRTRGHPEMYHWGQGTQVTVSS,high polyreactivity
12,QVQLVESGGGLVQAGGSLRLSCAASGFTFSYYAMGWYRQAPGKERELVAAISSGGSTYYADSVKGRFTISRDNAKNTVYLQMHRLKPEDTAVYYCNVLNYSSRHYLFSYDYWGQGTQVTVSS,high polyreactivity
13,QVQLVESGGGLVQAGGSLRLSCAASGFTFSYYAMGWYRQAPGKERELVAAISWSGGSTYYADSVKGRFTISRDNAKNTVYLQMNSLKPEDTAVYYCARVLTRPGRLDYWGQGTQVTVSS,high polyreactivity
14,QVQLVESGGGLVQAGGSLRLSCAASGFTFSYYAMGWYRQAPGKERELVAAITSGGRTYYADSVKGRFTISRDNAKNTVYLQMNSLKPEDTAVYYCATSSQRWFYSGNYWGQGTQVTVSS,high polyreactivity
15,QVQLVESGGGLVQAGGSLRLSCAASGFTFSYYAMGWYRQAPGKERELVAAITSGGSTYYADYVKGRFTISRDNAKNTVYLQMNRLKPEDTAVYYCNADGWYYPTDDYWGQGTQVTVSS,low polyreactivity
16,QVQLVESGGGLVQAGGSLRLSCAASGFTFSYYAMGWYRQAPGKERELVATITSGGSTYYADSVKGRFTISRDNAKNTVYLQMNSLKPEDTAVYYCNADWYWRVYWGQGTQVTVSS,high polyreactivity
17,QVQLVESGGGLVQAGGSLRLSCAASGFTFSYYVMGWYRPAPGKDRELVAAIDWSGDSTYYPDSVKGRFTISRDNAKNTVYLQMISLKPEDTAVYYCAADQHAYYPYYYWGQGTQVTVSS,low polyreactivity
18,QVQLVESGGGLVQAGGSLRLSCAASGFTFTAYAMGWYRQAPGKERELVAAINWSGSRTYYADSVKGRFTISRDNAKNTVYLQMNSLKPEDTAVYYCNTATSKSSYRHYDYWGQGTQVTVSS,high polyreactivity
19,QVQLVESGGGLVQAGGSLRLSCAASGFTFTDYAMGWYRQAPAKERELVAVITYDSTYYADSVKGRFTISRDNAKNTVYLQMNSLKPEDTAVYYCAADSYDWGDFDYWGQGTEVTVSS,low polyreactivity
20,QVQLVESGGGLVQAGGSLRLSCAASGFTFTDYTMGWYIQAPGTEREFVAAISYRGSNTYYADSVKGRFTISRDNAKNTVYLQMNSLKPLDTAVYYCAADSYRYKYNYWGQGTQVTVSS,high polyreactivity
21,QVQLVESGGGLVQAGGSLRLSCAASGFTFTGNAMGWYRPAPGKERELVAAISRSGGSTFYADSVKGRFTISRDNAKNTVYLQMNSLKPEDTAVYYCAARRRTLNYLYDYWGQGTQVTVSS,high polyreactivity
22,QVQLVESGGGLVQAGGSLRLSCAASGFTFTGYAMGWYRQAPGKERELVAAINRSGGTTYYADSVKGRFTISRDNAKNTVYLQMNSLKPEDTAVFYCAAFPSGRHRGDYWGQGTQVTVSS,high polyreactivity

row,Sequence,polyreactivity (PSR sort gate)
1,QVQLVESGGGLVQAGGSLRLSCAASGFTFTGYAMGWYRQAPGKERELVAVISSRGGSTYYADSVKGRFTISRDNAKNTVYLQMNSLKPEDTAVYYCAARGSKGFSSPFGYWGQGTQVTVSS,high polyreactivity
2,QVQLVESGGGLVQAGGSLRLSCAASGFTFTHYAMGWYRQAPGKERELVAAITDTGGGTYYADSVKGRFTISRHNAKNTVYLQMNSLKPQDTAVYYCAKPTSYRGYYSWGQGTQVTVSS,high polyreactivity
3,QVQLVESGGGLVQAGGSLRLSCAASGFTFTIYAMGWYRQAPGKERELVATISGRAGRTYYADSVKGRFTISRDNAKNTVYLQMNSLKPEDTAVYYCNAGQWRYPGLYYYWGQGTQVTVSS,high polyreactivity
4,QVQLVESGGGLVQAGGSLRLSCAASGFTFTKNAMGWYRQAPGKERELVAAISRGGGRTYYADSVKGRFTISRDNAKNTVYLQMNSLKPEDTAVYYCNVDKVGPGYDYWGQGTQVTVSS,high polyreactivity
5,QVQLVESGGGLVQAGGSLRLSCAASGFTFTKYAMGWYIQATGKERELVAAISRSGSSTYYADSVKGRFTISRDNAKNTVYLQMNSLKPEDTAVYYCAADNGYGDYYYWGQGTQVTVSS,high polyreactivity
6,QVQLVESGGGLVQAGGSLRLSCAASGFTFTKYAMGWYRQAPGKERELVAAISGRGGSTYYADSVKGRFTISRDNAKNTVYLQMNSLKPEDTAVYYCAKYRYTVAGYNYWGQGTQVTVSS,high polyreactivity
7,QVQLVESGGGLVQAGGSLRLSCAASGFTFTNNAMGWYRQAPGKERELVAAIRRSGTNTYYADSVKGRFTISRDNAKNPVYLQMNSLKPEDTAVYYCATDGYEYTDYGSSGYDYWGQGTQVTVSS,low polyreactivity
8,QVQLVESGGGLVQAGGSLRLSCAASGFTFTQYVKGWYRQAPGKERELVAAITRGGGSTYYADSVKGRFTISRDNAKNTVYLQMNRLKPEDTAFYYCATRRVEYIRGWVEYDYWGQGTQVTVSS,low polyreactivity
9,QVQLVESGGGLVQAGGSLRLSCAASGFTFTRNAMGRYRQAPGKERELVAAITSSGGRTYYADSVKGRFTISRDNAKNTVYLQMNSLKPVDTAVYYCAVYPRYSLPARDYDYWGQGTQVTVSS,high polyreactivity
10,QVQLVESGGGLVQAGGSLRLSCAASGFTFTRNAMGWYRQAPGKERELVAAISKSGGRTYYADSVKGRFTISRDNAKNTVYLKMNSLKPEDSAVYYCAVVPRPFGLGSDYDYWGQGTQVTVSS,high polyreactivity
11,QVQLVESGGGLVQAGGSLRLSCAASGFTFTRNAMGWYRQAPGKERELVAASTWSGGSTYYADSVKGRFTISRDNAKNTVYLQMNSLKPEDTAVYDCAALYRSRYYAGDYWGQGTQVTVSS,high polyreactivity
12,QVQLVESGGGLVQAGGSLRLSCAASGFTFTRNAMGWYRQAPGKERFVAAITGSGASTYYADSVKGRFTISRDNAKNTVYLQMNSLKPEDTAVYYCNAEYYAGRYRYDYWGQGTQVTVSS,high polyreactivity
13,QVQLVESGGGLVQAGGSLRLSCAASGFTFTRYAMGWSRQAPGKETELVAAISSGSRTYYADSVKGRFTISRDNAKNTVYLQMNSLKPEDTAVYYCAAPVYTYYGHYDSWGQGTQVTVSS,high polyreactivity
14,QVQLVESGGGLVQAGGSLRLSCAASGFTFTRYGMGWYRQSPGKERELVAGISSGGSTNYADSVKGRFTISRDNSKNTVYLQMNSLKPEDTAVYYCAAGFYSHGIELGYWGQGTQVTVSS,high polyreactivity
15,QVQLVESGGGLVQAGGSLRLSCAASGFTFTSYAMGWYRQAPGKERELVAAINRSGGSTTYADSVKGRFTISRDNAKNTVYLQMNSLNPEDTAVYYCAKAFRGHYWGQGTQVTVSS,high polyreactivity
16,QVQLVESGGGLVQAGGSLRLSCAASGFTFTTNAMGWYRQAPGKERELVAAISKRGTRTYYADSVKGRFTISRDNAKNTVYLQMNSLKPEDTAVYYCAAASVAGDKFDYWGQGTQVTVSS,high polyreactivity
17,QVQLVESGGGLVQAGGSLRLSCAASGFTFTTYGMGWSRQAPWKERELVAAISWSGGSTYYADSVKGRFTISRDNAKNTVYLQMNSLNPEYTAVYYCAKDRTYQASTLGYWGQGTQVTVSS,low polyreactivity
18,QVQLVESGGGLVQAGGSLRLSCAASGFTFTTYVMGSYRQAPGKERELVAAISRRGTSTRYADSVKGRFTISRDNAKNTVYLQMNSLKPEDTAVYYCAADRPYSIVPYDYWGQGTQVTVSS,high polyreactivity
19,QVQLVESGGGLVQAGGSLRLSCAASGFTFTWNTMGWYRQAPGKERELVAAITTGGRTYYADSVKGRFTISRDNAKNTVYLQMNSLKPEDTAVYYCNKLFIAKYDSWGQGTQVTVSS,high polyreactivity
20,QVQLVESGGGLVQAGGSLRLSCAASGFTFTYNAMGWYRQAPGKERELVAAITANGGGTNYADSVKGRFTISRDNAKNTVYLQMNSLKPEDTAVYYCAATIVVAVFESLVFYWYTEDNYWGQGTQVTVSS,low polyreactivity
21,QVQLVESGGGLVQAGGSLRLSCAASGFTFTYNAMGWYRQAPGKERELVARIRWSTGSTYYADSVKGRFTISRDNAKKTVYLQMNSLKPEDTAVYYCAADGYGWGGSGWQYPHGFGYWGQGTQVTVSS,low polyreactivity
